According to paper PMC7004355 (PLoS ONE, 2020):

T1: OTC (E. coli ornithine transcarbamoylase, argI) (Escherichia coli, UniProt P04391)
T1 construct: full length, uncleaved 6xHis tag, pCA24N ASKA clone, expressed in BL21(DE3) Tuner; homotrimer of 333-residue subunits
T1 sequence (P04391 2-334): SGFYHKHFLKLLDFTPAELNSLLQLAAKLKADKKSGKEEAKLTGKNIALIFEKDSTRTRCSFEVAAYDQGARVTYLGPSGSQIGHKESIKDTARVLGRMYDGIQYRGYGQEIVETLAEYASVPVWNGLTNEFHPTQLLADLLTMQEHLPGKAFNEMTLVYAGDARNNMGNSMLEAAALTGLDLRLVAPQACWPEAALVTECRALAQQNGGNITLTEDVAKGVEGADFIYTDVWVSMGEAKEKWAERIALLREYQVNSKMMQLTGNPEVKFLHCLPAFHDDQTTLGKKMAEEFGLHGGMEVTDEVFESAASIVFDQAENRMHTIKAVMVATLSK

B1: OTC (E. coli ornithine transcarbamoylase, argI) (Escherichia coli K-12; H273L) (protein)
chain: SGFYHKHFLKLLDFTPAELNSLLQLAAKLKADKKSGKEEAKLTGKNIALIFEKDSTRTRCSFEVAAYDQGARVTYLGPSGSQIGHKESIKDTARVLGRMYDGIQYRGYGQEIVETLAEYASVPVWNGLTNEFHPTQLLADLLTMQEHLPGKAFNEMTLVYAGDARNNMGNSMLEAAALTGLDLRLVAPQACWPEAALVTECRALAQQNGGNITLTEDVAKGVEGADFIYTDVWVSMGEAKEKWAERIALLREYQVNSKMMQLTGNPEVKFLLCLPAFHDDQTTLGKKMAEEFGLHGGMEVTDEVFESAASIVFDQAENRMHTIKAVMVATLSK
notes: full length, uncleaved 6xHis tag, pCA24N ASKA clone, expressed in BL21(DE3) Tuner; homotrimer of 333-residue subunits
B2: Escherichia coli ornithine transcarbamoylase (OTC) variant Y229F, His-tagged (enzyme, E. coli)
chain: SGFYHKHFLKLLDFTPAELNSLLQLAAKLKADKKSGKEEAKLTGKNIALIFEKDSTRTRCSFEVAAYDQGARVTYLGPSGSQIGHKESIKDTARVLGRMYDGIQYRGYGQEIVETLAEYASVPVWNGLTNEFHPTQLLADLLTMQEHLPGKAFNEMTLVYAGDARNNMGNSMLEAAALTGLDLRLVAPQACWPEAALVTECRALAQQNGGNITLTEDVAKGVEGADFIFTDVWVSMGEAKEKWAERIALLREYQVNSKMMQLTGNPEVKFLHCLPAFHDDQTTLGKKMAEEFGLHGGMEVTDEVFESAASIVFDQAENRMHTIKAVMVATLSK
notes: Anabolic ornithine transcarbamoylase of E. coli, argI gene, 333-residue subunit; Made by site-directed mutagenesis of the ASKA pCA24N plasmid; 6x-His tag not cleaved; source: E. coli BL21 (DE3) Tuner, purified (HisTrap FF, Superdex 200 SEC)
B3: OTC (E. coli ornithine transcarbamoylase, argI) (Escherichia coli K-12; R58A) (protein)
chain: SGFYHKHFLKLLDFTPAELNSLLQLAAKLKADKKSGKEEAKLTGKNIALIFEKDSTATRCSFEVAAYDQGARVTYLGPSGSQIGHKESIKDTARVLGRMYDGIQYRGYGQEIVETLAEYASVPVWNGLTNEFHPTQLLADLLTMQEHLPGKAFNEMTLVYAGDARNNMGNSMLEAAALTGLDLRLVAPQACWPEAALVTECRALAQQNGGNITLTEDVAKGVEGADFIYTDVWVSMGEAKEKWAERIALLREYQVNSKMMQLTGNPEVKFLHCLPAFHDDQTTLGKKMAEEFGLHGGMEVTDEVFESAASIVFDQAENRMHTIKAVMVATLSK
notes: as for B1
B4: Escherichia coli ornithine transcarbamoylase (OTC) variant Y160S, His-tagged (enzyme, E. coli)
chain: SGFYHKHFLKLLDFTPAELNSLLQLAAKLKADKKSGKEEAKLTGKNIALIFEKDSTRTRCSFEVAAYDQGARVTYLGPSGSQIGHKESIKDTARVLGRMYDGIQYRGYGQEIVETLAEYASVPVWNGLTNEFHPTQLLADLLTMQEHLPGKAFNEMTLVSAGDARNNMGNSMLEAAALTGLDLRLVAPQACWPEAALVTECRALAQQNGGNITLTEDVAKGVEGADFIYTDVWVSMGEAKEKWAERIALLREYQVNSKMMQLTGNPEVKFLHCLPAFHDDQTTLGKKMAEEFGLHGGMEVTDEVFESAASIVFDQAENRMHTIKAVMVATLSK
notes: as for B2
B5: Escherichia coli ornithine transcarbamoylase (OTC) variant S61A, His-tagged (enzyme, E. coli)
chain: SGFYHKHFLKLLDFTPAELNSLLQLAAKLKADKKSGKEEAKLTGKNIALIFEKDSTRTRCAFEVAAYDQGARVTYLGPSGSQIGHKESIKDTARVLGRMYDGIQYRGYGQEIVETLAEYASVPVWNGLTNEFHPTQLLADLLTMQEHLPGKAFNEMTLVYAGDARNNMGNSMLEAAALTGLDLRLVAPQACWPEAALVTECRALAQQNGGNITLTEDVAKGVEGADFIYTDVWVSMGEAKEKWAERIALLREYQVNSKMMQLTGNPEVKFLHCLPAFHDDQTTLGKKMAEEFGLHGGMEVTDEVFESAASIVFDQAENRMHTIKAVMVATLSK
notes: Anabolic ornithine transcarbamoylase of E. coli, argI gene, 333-residue subunit; Made by site-directed mutagenesis of the ASKA pCA24N plasmid; 6x-His tag not cleaved; also called negative control; source: E. coli BL21 (DE3) Tuner, purified (HisTrap FF, Superdex 200 SEC)

Legend:
[1] = molecular target: T1, OTC (E. coli ornithine transcarbamoylase, argI); assay: thermal shift (Sypro Orange); format: binding; conditions: absolute Tm, not dTm; 1 mM carbamoyl phosphate, 10 μM enzyme, 50 mM HEPES pH 8, 200 mM NaCl, 2 mM DTT
From the text: thermal shift (Sypro Orange) on OTC (E. coli ornithine transcarbamoylase, argI)

purified protein [2] = substrate: NC(=O)OP(=O)(O)O; assay: purified protein; format: biochemical, Escherichia coli; conditions: 50 mM Tris pH 8.5, 20 °C, 20 mM NaCl, ornithine 3 mM
[3] = molecular target: the molecule itself; assay: SEC-SAXS; in-line SEC-SAXS on a Superdex 200 5/150 GL column; enzyme at 4.3-5.5 mg/mL; apo state, and after incubation with 5 mM CP or 10 mM ORN; self-association of the enzyme (trimer)
purified protein [4] = substrate: NCCC[C@H](N)C(=O)O; assay: purified protein; conditions: 50 mM Tris pH 8.5, 20 °C, 20 mM NaCl, carbamoyl phosphate 5 mM

Molecule	Km (purified protein [2]) [µM]	kcat (purified protein [2]) [s⁻¹]	kcat/Km (purified protein [2]) [M⁻¹ s⁻¹]	binding result [3]	Km (purified protein [4]) [µM]	kcat (purified protein [4]) [s⁻¹]	kcat/Km (purified protein [4]) [M⁻¹ s⁻¹]	also measured
NC(=O)OP(=O)(O)O [CP, carbamoyl phosphate]	–	–	–	–	–	–	–	enzyme +cp [1]: 70 ± 0.5 °C
B1	930 ± 580	4.2 ± 1.8	5000 ± 1100	–	–	–	–	–
B2	–	–	–	binds	–	–	–	–
B3	280 ± 27	7.5 ± 1.8	27000 ± 7300	–	440 ± 92	8.2	19000	–
B4	–	–	–	binds	7300 ± 2000	410	61000	–
B5	–	–	–	binds	–	–	–	–
